Laboratory results taken from patent US20140087995A1 (published 2014).
Numbered stars: 1 amine (or outer) side, 2 acyl side, 3 side chain; on linkers, the order of the positions; unused ones are H or OH. Bridge positions count the residues as written; N and C are the ends. Side chains are listed from the residue outwards. Ends that are not written are not given here. * marks the point of attachment. C20 diacid = O=C(O)CCCCCCCCCCCCCCCCCCC(=O)*; γGlu = O=C(O)[C@H](CCC(=O)[*:2])N[*:1]; AEEA = NCCOCCOCC(=O)O

T1: human calcitonin receptor (human, UniProt P30988 25-474)
T1 sequence (looked up): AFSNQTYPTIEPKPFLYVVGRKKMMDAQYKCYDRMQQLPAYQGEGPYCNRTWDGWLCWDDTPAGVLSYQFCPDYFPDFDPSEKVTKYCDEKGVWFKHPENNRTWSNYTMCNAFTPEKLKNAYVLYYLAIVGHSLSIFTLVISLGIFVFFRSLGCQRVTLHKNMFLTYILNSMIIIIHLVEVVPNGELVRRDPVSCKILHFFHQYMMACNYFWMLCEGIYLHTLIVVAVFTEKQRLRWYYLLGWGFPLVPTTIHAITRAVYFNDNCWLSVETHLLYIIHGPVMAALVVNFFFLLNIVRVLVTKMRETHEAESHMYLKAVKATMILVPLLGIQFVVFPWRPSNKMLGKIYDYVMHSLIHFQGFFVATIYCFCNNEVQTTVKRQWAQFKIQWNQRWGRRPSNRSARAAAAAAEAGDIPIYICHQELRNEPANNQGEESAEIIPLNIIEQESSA

T2: human amylin receptor (amylin 3(a) receptor: human calcitonin receptor co-expressed with RAMP-3) (human, UniProt P30988 25-474; O60896 24-148, limits assumed)
T2 sequence (looked up) 1: T1 sequence (looked up)
T2 sequence (looked up) 2: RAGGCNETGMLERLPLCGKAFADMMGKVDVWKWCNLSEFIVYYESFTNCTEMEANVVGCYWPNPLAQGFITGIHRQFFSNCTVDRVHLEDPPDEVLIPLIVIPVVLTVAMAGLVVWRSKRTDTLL

B1: N^ε1-[2-[2-[2-[[(4S)-4-carboxy-4-(19-carboxynonadecanoylamino)butanoyl]amino]ethoxy]ethoxy]acetyl]-[His14,Arg17,Pro21,Pro27,Pro34]-h-amylin (peptide)
peptide: K([AEEA-γGlu-C20 diacid])CNTATCATQRLAHFLRHSSPNFGAIPSSTNVGPNTY-NH2
modifications: disulfide 2-7; N-terminus assumed
SMILES: CC[C@H](C)[C@H](NC(=O)[C@H](C)NC(=O)CNC(=O)[C@H](Cc1ccccc1)NC(=O)[C@H](CC(N)=O)NC(=O)[C@@H]1CCCN1C(=O)[C@H](CO)NC(=O)[C@H](CO)NC(=O)[C@H](Cc1c[nH]cn1)NC(=O)[C@H](CCCNC(=N)N)NC(=O)[C@H](CC(C)C)NC(=O)[C@H](Cc1ccccc1)NC(=O)[C@H](Cc1c[nH]cn1)NC(=O)[C@H](C)NC(=O)[C@H](CC(C)C)NC(=O)[C@H](CCCNC(=N)N)NC(=O)[C@H](CCC(N)=O)NC(=O)[C@@H](NC(=O)[C@H](C)NC(=O)[C@@H]1CSSC[C@H](NC(=O)[C@@H](N)CCCCNC(=O)COCCOCCNC(=O)CC[C@H](NC(=O)CCCCCCCCCCCCCCCCCCC(=O)O)C(=O)O)C(=O)N[C@@H](CC(N)=O)C(=O)N[C@@H]([C@@H](C)O)C(=O)N[C@@H](C)C(=O)N[C@@H]([C@@H](C)O)C(=O)N1)[C@@H](C)O)C(=O)N1CCC[C@H]1C(=O)N[C@@H](CO)C(=O)N[C@@H](CO)C(=O)N[C@H](C(=O)N[C@@H](CC(N)=O)C(=O)N[C@H](C(=O)NCC(=O)N1CCC[C@H]1C(=O)N[C@@H](CC(N)=O)C(=O)N[C@H](C(=O)N[C@@H](Cc1ccc(O)cc1)C(N)=O)[C@@H](C)O)C(C)C)[C@@H](C)O
notes: also called compound 68
B2: N^ε1-[2-[2-[2-[[(4S)-4-carboxy-4-(19-carboxynonadecanoylamino)butanoyl]amino]ethoxy]ethoxy]acetyl]-[Thr14,Arg17,Pro21,Pro27,Pro31]-h-amylin (peptide)
peptide: K([AEEA-γGlu-C20 diacid])CNTATCATQRLATFLRHSSPNFGAIPSSTPVGSNTY-NH2
modifications: disulfide 2-7; N-terminus assumed
SMILES: CC[C@H](C)[C@H](NC(=O)[C@H](C)NC(=O)CNC(=O)[C@H](Cc1ccccc1)NC(=O)[C@H](CC(N)=O)NC(=O)[C@@H]1CCCN1C(=O)[C@H](CO)NC(=O)[C@H](CO)NC(=O)[C@H](Cc1c[nH]cn1)NC(=O)[C@H](CCCNC(=N)N)NC(=O)[C@H](CC(C)C)NC(=O)[C@H](Cc1ccccc1)NC(=O)[C@@H](NC(=O)[C@H](C)NC(=O)[C@H](CC(C)C)NC(=O)[C@H](CCCNC(=N)N)NC(=O)[C@H](CCC(N)=O)NC(=O)[C@@H](NC(=O)[C@H](C)NC(=O)[C@@H]1CSSC[C@H](NC(=O)[C@@H](N)CCCCNC(=O)COCCOCCNC(=O)CC[C@H](NC(=O)CCCCCCCCCCCCCCCCCCC(=O)O)C(=O)O)C(=O)N[C@@H](CC(N)=O)C(=O)N[C@@H]([C@@H](C)O)C(=O)N[C@@H](C)C(=O)N[C@@H]([C@@H](C)O)C(=O)N1)[C@@H](C)O)[C@@H](C)O)C(=O)N1CCC[C@H]1C(=O)N[C@@H](CO)C(=O)N[C@@H](CO)C(=O)N[C@H](C(=O)N1CCC[C@H]1C(=O)N[C@H](C(=O)NCC(=O)N[C@@H](CO)C(=O)N[C@@H](CC(N)=O)C(=O)N[C@H](C(=O)N[C@@H](Cc1ccc(O)cc1)C(N)=O)[C@@H](C)O)C(C)C)[C@@H](C)O
notes: also called compound 75
B3: N^ε1-[2-[2-[2-[[(4S)-4-carboxy-4-(19-carboxynonadecanoylamino)butanoyl]amino]ethoxy]ethoxy]acetyl]-[Ser14,Arg17,Pro21,Pro27,Pro31]-h-amylin (peptide)
peptide: K([AEEA-γGlu-C20 diacid])CNTATCATQRLASFLRHSSPNFGAIPSSTPVGSNTY-NH2
modifications: disulfide 2-7; N-terminus assumed
SMILES: CC[C@H](C)[C@H](NC(=O)[C@H](C)NC(=O)CNC(=O)[C@H](Cc1ccccc1)NC(=O)[C@H](CC(N)=O)NC(=O)[C@@H]1CCCN1C(=O)[C@H](CO)NC(=O)[C@H](CO)NC(=O)[C@H](Cc1c[nH]cn1)NC(=O)[C@H](CCCNC(=N)N)NC(=O)[C@H](CC(C)C)NC(=O)[C@H](Cc1ccccc1)NC(=O)[C@H](CO)NC(=O)[C@H](C)NC(=O)[C@H](CC(C)C)NC(=O)[C@H](CCCNC(=N)N)NC(=O)[C@H](CCC(N)=O)NC(=O)[C@@H](NC(=O)[C@H](C)NC(=O)[C@@H]1CSSC[C@H](NC(=O)[C@@H](N)CCCCNC(=O)COCCOCCNC(=O)CC[C@H](NC(=O)CCCCCCCCCCCCCCCCCCC(=O)O)C(=O)O)C(=O)N[C@@H](CC(N)=O)C(=O)N[C@@H]([C@@H](C)O)C(=O)N[C@@H](C)C(=O)N[C@@H]([C@@H](C)O)C(=O)N1)[C@@H](C)O)C(=O)N1CCC[C@H]1C(=O)N[C@@H](CO)C(=O)N[C@@H](CO)C(=O)N[C@H](C(=O)N1CCC[C@H]1C(=O)N[C@H](C(=O)NCC(=O)N[C@@H](CO)C(=O)N[C@@H](CC(N)=O)C(=O)N[C@H](C(=O)N[C@@H](Cc1ccc(O)cc1)C(N)=O)[C@@H](C)O)C(C)C)[C@@H](C)O
notes: also called compound 73
B4: N^ε1-[(4S)-4-carboxy-4-(19-carboxynonadecanoylamino)butanoyl]-[Arg14,Arg17,Pro21,Pro27,Pro31]-h-amylin (peptide)
peptide: K([γGlu-C20 diacid])CNTATCATQRLARFLRHSSPNFGAIPSSTPVGSNTY-NH2
modifications: disulfide 2-7; N-terminus assumed
SMILES: CC[C@H](C)[C@H](NC(=O)[C@H](C)NC(=O)CNC(=O)[C@H](Cc1ccccc1)NC(=O)[C@H](CC(N)=O)NC(=O)[C@@H]1CCCN1C(=O)[C@H](CO)NC(=O)[C@H](CO)NC(=O)[C@H](Cc1c[nH]cn1)NC(=O)[C@H](CCCNC(=N)N)NC(=O)[C@H](CC(C)C)NC(=O)[C@H](Cc1ccccc1)NC(=O)[C@H](CCCNC(=N)N)NC(=O)[C@H](C)NC(=O)[C@H](CC(C)C)NC(=O)[C@H](CCCNC(=N)N)NC(=O)[C@H](CCC(N)=O)NC(=O)[C@@H](NC(=O)[C@H](C)NC(=O)[C@@H]1CSSC[C@H](NC(=O)[C@@H](N)CCCCNC(=O)CC[C@H](NC(=O)CCCCCCCCCCCCCCCCCCC(=O)O)C(=O)O)C(=O)N[C@@H](CC(N)=O)C(=O)N[C@@H]([C@@H](C)O)C(=O)N[C@@H](C)C(=O)N[C@@H]([C@@H](C)O)C(=O)N1)[C@@H](C)O)C(=O)N1CCC[C@H]1C(=O)N[C@@H](CO)C(=O)N[C@@H](CO)C(=O)N[C@H](C(=O)N1CCC[C@H]1C(=O)N[C@H](C(=O)NCC(=O)N[C@@H](CO)C(=O)N[C@@H](CC(N)=O)C(=O)N[C@H](C(=O)N[C@@H](Cc1ccc(O)cc1)C(N)=O)[C@@H](C)O)C(C)C)[C@@H](C)O
notes: also called compound 63
B5: N^ε1-[2-[2-[2-[[(4S)-4-carboxy-4-(19-carboxynonadecanoylamino)butanoyl]amino]ethoxy]ethoxy]acetyl]-[Lys14,Arg17,Pro21,Pro27,Pro31]-h-amylin (peptide)
peptide: K([AEEA-γGlu-C20 diacid])CNTATCATQRLAKFLRHSSPNFGAIPSSTPVGSNTY-NH2
modifications: disulfide 2-7; N-terminus assumed
SMILES: CC[C@H](C)[C@H](NC(=O)[C@H](C)NC(=O)CNC(=O)[C@H](Cc1ccccc1)NC(=O)[C@H](CC(N)=O)NC(=O)[C@@H]1CCCN1C(=O)[C@H](CO)NC(=O)[C@H](CO)NC(=O)[C@H](Cc1c[nH]cn1)NC(=O)[C@H](CCCNC(=N)N)NC(=O)[C@H](CC(C)C)NC(=O)[C@H](Cc1ccccc1)NC(=O)[C@H](CCCCN)NC(=O)[C@H](C)NC(=O)[C@H](CC(C)C)NC(=O)[C@H](CCCNC(=N)N)NC(=O)[C@H](CCC(N)=O)NC(=O)[C@@H](NC(=O)[C@H](C)NC(=O)[C@@H]1CSSC[C@H](NC(=O)[C@@H](N)CCCCNC(=O)COCCOCCNC(=O)CC[C@H](NC(=O)CCCCCCCCCCCCCCCCCCC(=O)O)C(=O)O)C(=O)N[C@@H](CC(N)=O)C(=O)N[C@@H]([C@@H](C)O)C(=O)N[C@@H](C)C(=O)N[C@@H]([C@@H](C)O)C(=O)N1)[C@@H](C)O)C(=O)N1CCC[C@H]1C(=O)N[C@@H](CO)C(=O)N[C@@H](CO)C(=O)N[C@H](C(=O)N1CCC[C@H]1C(=O)N[C@H](C(=O)NCC(=O)N[C@@H](CO)C(=O)N[C@@H](CC(N)=O)C(=O)N[C@H](C(=O)N[C@@H](Cc1ccc(O)cc1)C(N)=O)[C@@H](C)O)C(C)C)[C@@H](C)O
notes: also called compound 74
B6: N^ε1-[2-[2-[2-[[(4S)-4-carboxy-4-(19-carboxynonadecanoylamino)butanoyl]amino]ethoxy]ethoxy]acetyl]-[His14,Arg17,Pro21,Pro27]-h-amylin (peptide)
peptide: K([AEEA-γGlu-C20 diacid])CNTATCATQRLAHFLRHSSPNFGAIPSSTNVGSNTY-NH2
modifications: disulfide 2-7; N-terminus assumed
SMILES: CC[C@H](C)[C@H](NC(=O)[C@H](C)NC(=O)CNC(=O)[C@H](Cc1ccccc1)NC(=O)[C@H](CC(N)=O)NC(=O)[C@@H]1CCCN1C(=O)[C@H](CO)NC(=O)[C@H](CO)NC(=O)[C@H](Cc1c[nH]cn1)NC(=O)[C@H](CCCNC(=N)N)NC(=O)[C@H](CC(C)C)NC(=O)[C@H](Cc1ccccc1)NC(=O)[C@H](Cc1c[nH]cn1)NC(=O)[C@H](C)NC(=O)[C@H](CC(C)C)NC(=O)[C@H](CCCNC(=N)N)NC(=O)[C@H](CCC(N)=O)NC(=O)[C@@H](NC(=O)[C@H](C)NC(=O)[C@@H]1CSSC[C@H](NC(=O)[C@@H](N)CCCCNC(=O)COCCOCCNC(=O)CC[C@H](NC(=O)CCCCCCCCCCCCCCCCCCC(=O)O)C(=O)O)C(=O)N[C@@H](CC(N)=O)C(=O)N[C@@H]([C@@H](C)O)C(=O)N[C@@H](C)C(=O)N[C@@H]([C@@H](C)O)C(=O)N1)[C@@H](C)O)C(=O)N1CCC[C@H]1C(=O)N[C@@H](CO)C(=O)N[C@@H](CO)C(=O)N[C@H](C(=O)N[C@@H](CC(N)=O)C(=O)N[C@H](C(=O)NCC(=O)N[C@@H](CO)C(=O)N[C@@H](CC(N)=O)C(=O)N[C@H](C(=O)N[C@@H](Cc1ccc(O)cc1)C(N)=O)[C@@H](C)O)C(C)C)[C@@H](C)O
notes: also called compound 69

Target: T1, human calcitonin receptor
Test: cell-based or functional assay

Binder	Ratio hCT/hAmylin funct. (hCTR EC50 against hAmylin-R EC50)	hCTR funct. EC50 [nM]
B1	17.4	0.932
B2	30.6	9.07
B3	11.3	0.961
B4	139	5.13
B5	56.3	37.5
B6	13.3	1.25

Target: T2, human amylin receptor (amylin 3(a) …)
Test: cell-based or functional assay

Binder	hAmylin-R funct. EC50 [nM]
B1	0.054
B2	0.296
B3	0.085
B4	0.037
B5	0.666
B6	0.094
